Consider two molecules from patent publication US20060024271A1 (priority 2004, published 2006).

Read-outs that look alike come from different tables or passages of the source.

Type in all cases: in vivo, BALB/c mice
Assay [1] has as its system vaccinia virus. The note with it: for survival of vaccinia infected mice: 5×10^3 U/mouse/day i.n., 5 days, started one day before infection, 8 LD50, 21 days monitoring.
Assay [2] deals with vaccinia virus. The following applies: IFN-γ 5,000 to 20,000 U i.n., daily for five days from one day after infection; 50 LD50.
The test system of assay [3] is vaccinia virus. The following applies: 8 LD50.

For IFN-α, the “survival of vaccinia infected mice” value in assay [1] was found to be 100%. In assay [1] (IFN-α 5,000 U intranasal, 50 LD50 as printed in b34 (FIG. 2)), the “protection against severe vaccinia infection” value is reported as 70-80%.

B1: IFN-γ (protein, UniProt P01579 24-161, looked up)
Interferon gamma: QDPYVKEAENLKKYFNAGHSDVADNGTLFLGILKNWKEESDRKIMQSQIVSFYFKLFKNFKDDQSIQKSVETIKEDMNVKFFNSNKKKRDDFEKLTNYSVTDLNVQRKAIHELIQVMAELSPAAKTGKRKRSQMLFRG
As for B1, the “protection against severe vaccinia infection” value in assay [2] is given as 70-80%. The “survival of vaccinia infected mice” value in assay [1] was 90%; in assay [3] (IFN-γ 2,000 U only, i.n., 5 days from one day after infection), 80%. Also, in assay [3] (IFN-γ 5,000 U), the “protection of vaccinia infected mice” value was determined as 100%.
